Target: SRGAP1 (UniProt Q7Z6B7)
Experiment: GFP-trap of SRGAP1-GFP, blot for cortactin-mCherry
Conditions: reference: wild type cortactin-mCherry; sites Y421,Y470,Y486

cortactin (from UniProt Q14247) 3YF cortactin-mCherry
binding against the reference: stronger

Reference: article PMC5629210
